Earlier results as cited in paper PMC8654464.

Target: SARS-CoV-2 spike protein RBD (Severe acute respiratory syndrome coronavirus 2) (UniProt P0DTC2)

Substance: regdanvimab
- Kd: 0.065 nM
